Reference: paper PMC12402178

Key:
[1] = target: microtubules polymerised from porcine brain tubulin (GMPCPP-stabilised seeds, dynamic GDP lattice, or taxol-stabilised) (porcine) (UniProt P02550); experiment: FRAP (TIRF microscopy); anillin-GFP bleached on single GMPCPP microtubules; single exponential fit, median of fits
[2] = target: microtubules polymerised from porcine brain tubulin (GMPCPP-stabilised seeds, dynamic GDP lattice, or taxol-stabilised) (porcine) (UniProt P02550); experiment: FRAP (TIRF microscopy); anillin-GFP bleached on single GDP (dynamic) microtubules; single exponential fit, median of fits; 26 C

Anillin-GFP (full-length human anillin, isoform 2, 1087 amino acids), sequence (Q9NQW6 other isoform, or with tags, fused parts or gaps): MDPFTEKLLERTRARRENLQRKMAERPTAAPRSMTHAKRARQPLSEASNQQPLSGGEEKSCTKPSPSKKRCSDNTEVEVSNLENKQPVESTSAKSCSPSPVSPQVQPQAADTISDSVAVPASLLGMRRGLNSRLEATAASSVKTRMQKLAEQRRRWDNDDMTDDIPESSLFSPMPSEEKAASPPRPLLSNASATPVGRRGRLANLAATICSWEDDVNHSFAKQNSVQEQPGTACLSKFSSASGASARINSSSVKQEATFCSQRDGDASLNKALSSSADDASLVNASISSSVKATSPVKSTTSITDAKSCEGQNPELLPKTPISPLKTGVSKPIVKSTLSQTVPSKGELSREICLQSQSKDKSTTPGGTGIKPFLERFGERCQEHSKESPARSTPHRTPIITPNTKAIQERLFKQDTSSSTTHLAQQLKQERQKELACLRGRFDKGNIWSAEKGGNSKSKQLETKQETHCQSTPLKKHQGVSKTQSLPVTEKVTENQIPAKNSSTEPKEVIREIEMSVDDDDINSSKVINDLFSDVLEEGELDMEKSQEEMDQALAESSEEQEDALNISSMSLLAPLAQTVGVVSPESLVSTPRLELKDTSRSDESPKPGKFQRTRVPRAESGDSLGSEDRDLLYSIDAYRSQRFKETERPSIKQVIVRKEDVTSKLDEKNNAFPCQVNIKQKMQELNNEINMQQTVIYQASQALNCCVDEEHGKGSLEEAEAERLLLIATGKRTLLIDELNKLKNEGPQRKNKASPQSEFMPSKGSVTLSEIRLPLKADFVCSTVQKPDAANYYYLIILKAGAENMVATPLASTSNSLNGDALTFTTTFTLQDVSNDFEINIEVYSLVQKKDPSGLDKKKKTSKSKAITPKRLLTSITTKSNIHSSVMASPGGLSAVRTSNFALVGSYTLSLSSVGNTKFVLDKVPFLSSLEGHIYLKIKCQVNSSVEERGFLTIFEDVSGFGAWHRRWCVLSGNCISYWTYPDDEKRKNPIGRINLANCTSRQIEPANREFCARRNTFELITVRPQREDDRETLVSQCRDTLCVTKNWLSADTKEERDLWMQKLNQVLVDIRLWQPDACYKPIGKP

Anillin-GFP (full-length human anillin, isoform 2, 1087 amino acids) (from UniProt Q9NQW6-2 1-1087) (natural protein)
koff [1]: 0.26 s⁻¹ | koff [2]: 1.07 s⁻¹
